Assay results reported in patent US20040142357A1.

Molecular target: telomerase of HT1080 cells (telomerase-containing fraction, or cellular telomerase in stable HT1080 lines) (human) (UniProt O14746)
Experiment: cell-based or functional assay

telomerase of HT1080 cells (telomerase-containing fraction, or cellular telomerase in stable HT1080 lines) (human), sequence (O14746 whole entry): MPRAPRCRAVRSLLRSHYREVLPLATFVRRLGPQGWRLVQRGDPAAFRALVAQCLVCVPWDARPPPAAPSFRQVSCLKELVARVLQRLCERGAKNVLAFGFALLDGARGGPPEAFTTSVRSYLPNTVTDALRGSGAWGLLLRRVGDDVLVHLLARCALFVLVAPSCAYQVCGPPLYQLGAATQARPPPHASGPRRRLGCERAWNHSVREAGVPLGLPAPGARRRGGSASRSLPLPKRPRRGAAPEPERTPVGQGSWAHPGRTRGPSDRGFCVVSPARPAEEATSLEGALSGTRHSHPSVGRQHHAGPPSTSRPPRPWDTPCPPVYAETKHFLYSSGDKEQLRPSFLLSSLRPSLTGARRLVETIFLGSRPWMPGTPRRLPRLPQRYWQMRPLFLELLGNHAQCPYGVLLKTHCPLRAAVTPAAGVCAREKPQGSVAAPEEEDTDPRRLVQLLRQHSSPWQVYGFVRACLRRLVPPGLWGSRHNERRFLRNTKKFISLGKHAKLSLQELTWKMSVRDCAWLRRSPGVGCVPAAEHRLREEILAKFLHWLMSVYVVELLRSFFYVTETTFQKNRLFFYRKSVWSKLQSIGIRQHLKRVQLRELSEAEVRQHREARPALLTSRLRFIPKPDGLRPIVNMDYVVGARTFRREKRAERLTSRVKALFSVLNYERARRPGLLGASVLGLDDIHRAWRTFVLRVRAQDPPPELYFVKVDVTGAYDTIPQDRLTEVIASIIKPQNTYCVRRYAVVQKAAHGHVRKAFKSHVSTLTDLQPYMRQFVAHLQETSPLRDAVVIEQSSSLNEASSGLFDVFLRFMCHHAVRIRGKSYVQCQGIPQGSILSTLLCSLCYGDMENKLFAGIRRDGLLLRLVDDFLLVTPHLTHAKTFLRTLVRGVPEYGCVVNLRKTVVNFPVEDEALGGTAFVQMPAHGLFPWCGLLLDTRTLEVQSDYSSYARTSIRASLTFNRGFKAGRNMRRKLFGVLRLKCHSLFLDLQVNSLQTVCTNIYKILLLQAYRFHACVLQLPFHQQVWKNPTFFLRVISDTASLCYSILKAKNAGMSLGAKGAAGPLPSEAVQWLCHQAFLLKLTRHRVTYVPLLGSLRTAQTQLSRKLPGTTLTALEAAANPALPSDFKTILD

## His-PinX1 (N-terminal His fusion of PinX1, pET28a) (from UniProt Q96BK5 1-328)
  IC50 of inhibition of telomerase activity in vitro (TRAP assay): 25 nM
